According to patent US6713265:
Read-outs that look alike come from different tables or passages of the source.

Assays:
[1] = target: rat hypothalamic membranes (NPY/PYY binding sites); assay: 125I-PYY3-36 displacement, rat hypothalamic membranes
[2] = target: rat hypothalamic membranes (NPY/PYY binding sites); assay: 125I-PYY displacement, rat hypothalamic membranes
[3] = target: rat hypothalamic membranes (NPY/PYY binding sites); assay: 125I-PYY displacement, rat hypothalamic membranes, low-affinity part
[4] = target: rat hypothalamic membranes (NPY/PYY binding sites); assay: 125I-PYY3-36 displacement, rat hypothalamic membranes, high-affinity part
[5] = target: rat hypothalamic membranes (NPY/PYY binding sites); assay: 125I-PYY displacement, rat hypothalamic membranes, high-affinity part
[6] = target: rat hypothalamic membranes (NPY/PYY binding sites); assay: 125I-PYY3-36 displacement, rat hypothalamic membranes, low-affinity part
[7] = target: human Y5 receptor (human) (UniProt Q15761); assay: 125I-PYY3-36 displacement, LM(tk-) membranes
[8] = target: human Y4 receptor (human) (UniProt P50391); assay: 125I-PYY displacement, COS-7 membranes
[9] = target: human Y2 receptor (human) (UniProt P49146); assay: 125I-PYY displacement, COS-7 membranes
[10] = target: human Y1 receptor (human) (UniProt P25929); assay: 125I-PYY displacement, COS-7 membranes
[11] = target: human Y5 receptor (human) (UniProt Q15761); assay: 125I-PYY displacement, COS-7 membranes
[12] = target: rat hypothalamic Y5 receptor (rat) (UniProt Q63634); assay: 125I-PYY displacement, COS-7 membranes
[13] = target: rat Y1 receptor (rat) (UniProt P21555); assay: 125I-PYY displacement, COS-7 membranes
[14] = target: rat Y4 receptor (rat) (UniProt Q63447); assay: 125I-PYY displacement, COS-7 membranes
[15] = target: rat hypothalamic Y5 receptor (rat) (UniProt Q63634); assay: 125I-PYY displacement, COS-7 membranes; remark: listed apart in the source
[16] = target: rat Y2 receptor (rat) (UniProt Q9ERC0); assay: 125I-PYY displacement, COS-7 membranes
[17] = target: human Y5 receptor (human) (UniProt Q15761); assay: cell-based or functional assay
[18] = target: rat hypothalamic Y5 receptor (rat) (UniProt Q63634); assay: cell-based or functional assay
[19] = target: human Y5 receptor (human) (UniProt Q15761); assay: 125I-PYY displacement, COS-7 membranes; remark: listed apart in the source
[20] = target: canine Y5 receptor (canine) (UniProt O62729); assay: 125I-PYY displacement, COS-7 membranes
[21] = target: human Y5 receptor (human) (UniProt Q15761); assay: 125I-PYY displacement, LM(tk-) membranes
[22] = target: rat hypothalamic Y5 receptor (rat) (UniProt Q63634); assay: 125I-PYY displacement, COS-7 membranes; remark: listed apart in the source

Chain of salmon PP (peptide) (P69092 whole entry): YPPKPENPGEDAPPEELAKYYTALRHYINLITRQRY
Chain of rat hypothalamic Y5 receptor (rat) (Q63634 other isoform, or with tags, fused parts or gaps): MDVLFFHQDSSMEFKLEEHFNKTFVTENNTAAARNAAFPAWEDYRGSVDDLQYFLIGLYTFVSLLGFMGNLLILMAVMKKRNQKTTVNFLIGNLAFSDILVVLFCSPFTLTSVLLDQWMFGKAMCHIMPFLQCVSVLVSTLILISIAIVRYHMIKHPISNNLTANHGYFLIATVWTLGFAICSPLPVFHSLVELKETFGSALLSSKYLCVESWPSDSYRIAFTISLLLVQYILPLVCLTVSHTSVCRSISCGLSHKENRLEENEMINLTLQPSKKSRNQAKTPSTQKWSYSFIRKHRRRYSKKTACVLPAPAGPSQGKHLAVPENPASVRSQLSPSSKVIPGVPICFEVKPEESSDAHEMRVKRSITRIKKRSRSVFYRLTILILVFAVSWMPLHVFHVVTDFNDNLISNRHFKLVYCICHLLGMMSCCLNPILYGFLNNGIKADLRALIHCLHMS
Chain of human Y5 receptor (human) (Q15761 other isoform, or with tags, fused parts or gaps): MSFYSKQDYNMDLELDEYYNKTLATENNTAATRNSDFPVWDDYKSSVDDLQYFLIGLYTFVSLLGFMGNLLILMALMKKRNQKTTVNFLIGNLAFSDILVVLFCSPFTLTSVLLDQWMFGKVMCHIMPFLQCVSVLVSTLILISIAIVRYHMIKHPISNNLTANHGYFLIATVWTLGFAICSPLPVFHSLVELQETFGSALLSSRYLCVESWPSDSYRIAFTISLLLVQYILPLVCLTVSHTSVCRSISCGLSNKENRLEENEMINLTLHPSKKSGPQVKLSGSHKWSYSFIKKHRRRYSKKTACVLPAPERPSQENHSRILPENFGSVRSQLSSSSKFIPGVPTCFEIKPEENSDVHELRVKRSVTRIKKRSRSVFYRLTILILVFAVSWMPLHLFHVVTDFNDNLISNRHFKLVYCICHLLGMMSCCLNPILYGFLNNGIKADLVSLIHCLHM
Chain of rat Y4 receptor (rat) (Q63447 whole entry): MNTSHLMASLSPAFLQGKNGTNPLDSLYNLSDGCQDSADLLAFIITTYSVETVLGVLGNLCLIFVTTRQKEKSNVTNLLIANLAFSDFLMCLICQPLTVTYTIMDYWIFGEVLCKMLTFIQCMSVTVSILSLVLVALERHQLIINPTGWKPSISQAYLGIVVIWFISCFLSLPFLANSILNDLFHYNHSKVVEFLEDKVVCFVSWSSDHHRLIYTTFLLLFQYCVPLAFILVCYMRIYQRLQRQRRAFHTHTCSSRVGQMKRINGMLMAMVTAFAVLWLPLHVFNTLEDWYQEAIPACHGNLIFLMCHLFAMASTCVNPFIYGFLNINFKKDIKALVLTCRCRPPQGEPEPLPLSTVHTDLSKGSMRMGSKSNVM
Chain of human Y1 receptor (human) (P25929 whole entry): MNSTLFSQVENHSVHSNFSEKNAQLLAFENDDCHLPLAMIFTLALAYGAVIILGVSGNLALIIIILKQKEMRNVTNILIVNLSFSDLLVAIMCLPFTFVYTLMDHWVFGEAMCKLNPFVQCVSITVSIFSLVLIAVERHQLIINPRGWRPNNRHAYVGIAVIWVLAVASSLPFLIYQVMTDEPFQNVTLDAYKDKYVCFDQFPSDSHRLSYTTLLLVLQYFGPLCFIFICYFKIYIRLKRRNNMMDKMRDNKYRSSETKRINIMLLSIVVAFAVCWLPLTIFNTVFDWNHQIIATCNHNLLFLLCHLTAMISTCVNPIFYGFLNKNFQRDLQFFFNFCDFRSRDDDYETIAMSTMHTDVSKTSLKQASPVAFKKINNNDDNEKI
Chain of human Y4 receptor (human) (P50391 whole entry): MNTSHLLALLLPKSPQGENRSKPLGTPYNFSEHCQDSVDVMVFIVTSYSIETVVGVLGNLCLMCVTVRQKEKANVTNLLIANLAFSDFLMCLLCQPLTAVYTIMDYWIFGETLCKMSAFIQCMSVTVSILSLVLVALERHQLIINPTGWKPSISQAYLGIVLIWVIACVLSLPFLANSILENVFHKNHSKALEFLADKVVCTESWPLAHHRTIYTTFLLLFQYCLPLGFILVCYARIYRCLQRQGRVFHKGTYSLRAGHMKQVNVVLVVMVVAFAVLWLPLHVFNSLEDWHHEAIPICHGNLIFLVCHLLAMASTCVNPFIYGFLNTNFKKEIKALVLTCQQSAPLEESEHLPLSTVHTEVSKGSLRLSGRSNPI
Chain of rat Y1 receptor (rat) (P21555 whole entry): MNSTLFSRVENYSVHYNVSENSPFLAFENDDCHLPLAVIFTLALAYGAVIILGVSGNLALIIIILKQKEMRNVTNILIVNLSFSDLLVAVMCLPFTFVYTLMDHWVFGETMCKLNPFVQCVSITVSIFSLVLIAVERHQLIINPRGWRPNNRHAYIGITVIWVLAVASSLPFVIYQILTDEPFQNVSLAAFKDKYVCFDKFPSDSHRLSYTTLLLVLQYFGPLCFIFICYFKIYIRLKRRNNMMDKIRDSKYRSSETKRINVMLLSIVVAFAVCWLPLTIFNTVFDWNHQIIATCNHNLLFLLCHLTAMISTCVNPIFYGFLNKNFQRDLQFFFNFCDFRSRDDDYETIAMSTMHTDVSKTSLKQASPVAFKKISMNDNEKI
Chain of human Y2 receptor (human) (P49146 whole entry): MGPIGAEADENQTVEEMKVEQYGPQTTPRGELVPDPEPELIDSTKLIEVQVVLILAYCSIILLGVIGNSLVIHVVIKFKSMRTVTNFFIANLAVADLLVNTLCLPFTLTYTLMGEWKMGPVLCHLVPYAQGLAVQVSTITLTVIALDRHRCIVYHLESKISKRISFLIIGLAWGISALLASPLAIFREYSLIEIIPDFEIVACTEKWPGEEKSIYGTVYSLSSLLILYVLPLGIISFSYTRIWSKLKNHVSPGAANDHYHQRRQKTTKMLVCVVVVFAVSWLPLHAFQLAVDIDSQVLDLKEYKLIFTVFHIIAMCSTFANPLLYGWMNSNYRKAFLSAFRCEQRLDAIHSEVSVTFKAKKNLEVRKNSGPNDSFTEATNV
Chain of rat Y2 receptor (rat) (Q9ERC0 entry or part of it): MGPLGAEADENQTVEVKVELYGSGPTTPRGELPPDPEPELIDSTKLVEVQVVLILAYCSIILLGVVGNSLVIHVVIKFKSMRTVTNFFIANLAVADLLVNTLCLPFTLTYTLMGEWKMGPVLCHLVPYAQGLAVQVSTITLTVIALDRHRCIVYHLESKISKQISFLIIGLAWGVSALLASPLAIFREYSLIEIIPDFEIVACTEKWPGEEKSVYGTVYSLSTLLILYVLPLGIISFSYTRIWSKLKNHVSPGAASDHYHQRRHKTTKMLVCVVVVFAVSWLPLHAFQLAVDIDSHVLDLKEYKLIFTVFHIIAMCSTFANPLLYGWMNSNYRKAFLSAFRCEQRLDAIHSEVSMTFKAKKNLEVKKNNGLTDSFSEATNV
Chain of canine Y5 receptor (canine) (O62729 other isoform, or with tags, fused parts or gaps): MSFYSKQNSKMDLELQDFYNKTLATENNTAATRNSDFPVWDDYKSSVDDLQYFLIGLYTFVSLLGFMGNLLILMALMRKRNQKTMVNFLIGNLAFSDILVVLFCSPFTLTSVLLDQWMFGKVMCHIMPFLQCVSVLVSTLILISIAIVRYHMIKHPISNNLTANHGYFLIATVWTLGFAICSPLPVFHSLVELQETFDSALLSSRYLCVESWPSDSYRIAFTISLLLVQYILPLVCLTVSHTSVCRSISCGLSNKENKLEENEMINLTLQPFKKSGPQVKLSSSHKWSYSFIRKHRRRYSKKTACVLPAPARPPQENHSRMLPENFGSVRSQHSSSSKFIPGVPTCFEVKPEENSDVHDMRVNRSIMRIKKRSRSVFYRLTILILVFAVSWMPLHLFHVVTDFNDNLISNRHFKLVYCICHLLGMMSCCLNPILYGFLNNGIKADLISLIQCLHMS

**Q.** What does the source list for “rat/human NPY (from UniProt P01303 29-64) (peptide)”?
**A.** % NPY-produced displacement [1]: 100%; % NPY-produced displacement [2]: 100%; IC50 [2]: 0.82 nM

**Q.** Which results are given for “human [Leu^31, Pro^34]NPY (from UniProt P01303 29-64) (peptide)”?
**A.** % NPY-produced displacement [3]: 56%; IC50 [3]: 340 nM; % NPY-produced displacement [4]: 27%; IC50 [4]: 0.38 nM; % NPY-produced displacement [5]: 44%; IC50 [5]: 0.21 nM; % NPY-produced displacement [6]: 73%; IC50 [6]: 250 nM

**Q.** How did the Ki [7] turn out when salmon PP (peptide) was run?
**A.** The Ki was 0.63 nM.

**Q.** What about the Ki [8] of the same substance?
**A.** Its Ki is 3.2 nM.

**Q.** What about the Ki [9] of the same substance?
**A.** The Ki was 0.17 nM.

**Q.** And the Ki [10]?
**A.** The Ki was 0.11 nM.

**Q.** And the Ki [11]?
**A.** Its Ki is 0.46 nM.

**Q.** And the Ki [12]?
**A.** The Ki was 0.31 nM.

**Q.** And the Ki [13]?
**A.** The Ki was 0.3 nM.

**Q.** And the Ki [14]?
**A.** Its Ki is 3 nM.

**Q.** And the Ki [15]?
**A.** The Ki was 0.33 nM.

**Q.** What about the Ki [16] of the same substance?
**A.** Its Ki is 0.16 nM.

**Q.** What about the % inhibition relative to human NPY, cAMP, LM(tk-) cells [17] of the same substance?
**A.** The % inhibition relative to human NPY, cAMP, LM(tk-) cells was 96%.

**Q.** And the EC50, inhibition of forskolin-stimulated cAMP accumulation, LM(tk-) cells [17]?
**A.** The EC50, inhibition of forskolin-stimulated cAMP accumulation, LM(tk-) cells was 4.5 nM.

**Q.** What about the EC50, inhibition of forskolin-stimulated cAMP accumulation, 293 cells [18] of the same substance?
**A.** The EC50, inhibition of forskolin-stimulated cAMP accumulation, 293 cells was 0.92 nM.

**Q.** And the Ki [19]?
**A.** The Ki was 0.27 nM.

**Q.** Which Ki [14] does the source give for “porcine NPY3-36, P01304 12-45 (peptide; other documents disagree on this pair)” here?
**A.** The Ki was 36 nM.

**Q.** “rat/human NPY, P01303 29-64 (peptide; C-terminal amide; other documents disagree on this pair)” was tested. Which Ki [14] did it give?
**A.** Its Ki is 1.7 nM.

**Q.** How did the Ki [7] turn out when porcine C2-NPY (peptide) was run?
**A.** The Ki was 220 nM.

**Q.** And the Ki [8]?
**A.** The Ki was 120 nM.

**Q.** What about the Ki [9] of the same substance?
**A.** The Ki was 3.5 nM.

**Q.** And the Ki [10]?
**A.** The Ki was 79 nM.

**Q.** And the Ki [20]?
**A.** Its Ki is 300 nM.

**Q.** And the Ki [12]?
**A.** Its Ki is 470 nM.

**Q.** And the Ki [21]?
**A.** Its Ki is 260 nM.

**Q.** What about the Ki [13] of the same substance?
**A.** The Ki was 140 nM.

**Q.** What about the Ki [14] of the same substance?
**A.** The Ki was 22 nM.

**Q.** What about the Ki [16] of the same substance?
**A.** Its Ki is 2.6 nM.

**Q.** What about the EC50, inhibition of forskolin-stimulated cAMP accumulation, 293 cells [18] of the same substance?
**A.** Its EC50, inhibition of forskolin-stimulated cAMP accumulation, 293 cells is 240 nM.

**Q.** And the Ki [19]?
**A.** Its Ki is 370 nM.

**Q.** And the Ki [22]?
**A.** The Ki was 260 nM.

**Q.** “human PP (from UniProt P01298 30-65) (peptide)” was tested. Which % NPY-produced displacement [2] did it give?
**A.** Its % NPY-produced displacement is 20%.

**Q.** How did the % NPY-produced displacement [1] turn out when “human NPY2-36 (from UniProt P01303 30-64) (peptide)” was run?
**A.** The % NPY-produced displacement was 100%.

**Q.** What about the IC50 [1] of the same substance?
**A.** The IC50 was 1.2 nM.

**Q.** What about the % NPY-produced displacement [2] of the same substance?
**A.** The % NPY-produced displacement was 100%.

**Q.** And the IC50 [2]?
**A.** The IC50 was 2.3 nM.

**Q.** With “human NPY2-36, P01303 30-64 (peptide; other documents disagree on this pair)” as the substance, how does the Ki [14] read?
**A.** Its Ki is 5 nM.

**Q.** Which results are given for “human PYY (from UniProt P10082 29-64) (peptide)”?
**A.** % NPY-produced displacement [1]: 100%; IC50 [1]: 0.29 nM; % NPY-produced displacement [2]: 100%

**Q.** Which Ki [15] does the source give for W(nor-L)RF-amide (peptide) here?
**A.** Its Ki is 8700 nM.
